Publication doi:10.1101/429076 (bioRxiv, 2018)
Changes are numbered by the printed parent chain. Names and notes keep the numbering of the source.

T1: FANCL URD-RING fragment (FANCL^UR, residues 109-375) (human, UniProt Q9NW38 109-375)
T1 sequence (looked up): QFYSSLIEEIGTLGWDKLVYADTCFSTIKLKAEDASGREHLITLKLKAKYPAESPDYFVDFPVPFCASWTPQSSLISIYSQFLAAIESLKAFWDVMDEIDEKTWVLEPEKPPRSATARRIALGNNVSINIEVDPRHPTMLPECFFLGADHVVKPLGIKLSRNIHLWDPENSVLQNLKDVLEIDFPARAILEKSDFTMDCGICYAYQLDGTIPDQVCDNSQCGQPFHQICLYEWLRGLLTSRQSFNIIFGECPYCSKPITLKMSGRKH

B1: Ube2T wildtype (enzyme, human, UniProt Q9NPD8 1-197, looked up)
chain: MQRASRLKRELHMLATEPPPGITCWQDKDQMDDLRAQILGGANTPYEKGVFKLEVIIPERYPFEPPQIRFLTPIYHPNIDSAGRICLDVLKLPPKGAWRPSLNIATVLTSIQLLMSEPNPDDPLMADISSEFKYNKPAFLKNARQWTEKHARQKQKADEEEMLDNLPEAGDSRVHNSTQKRKASQLVGIEKKFHPDV
B2: Ube2T loop2-loop7 hybrid mutant (D32A, D33A, L92A or DDL/AAA) (enzyme, human, UniProt Q9NPD8 1-197, looked up)
chain: B1 chain with D32A, D33A, L92A
B3: FANCL RING domain (FANCL^R, residues 289-375) (domain or fragment, human, UniProt Q9NW38 289-375, looked up)
chain: EIDFPARAILEKSDFTMDCGICYAYQLDGTIPDQVCDNSQCGQPFHQICLYEWLRGLLTSRQSFNIIFGECPYCSKPITLKMSGRKH
B4: Ube2T Glu54Arg (Ube2Tv1 variant with a permissive gate, E54R) (enzyme, human, UniProt Q9NPD8 1-197, looked up)
chain: B1 chain with E54R
B5: Ube2T backside β1 double mutant (T23R+W25Q or TW/RQ) (enzyme, human, UniProt Q9NPD8 1-197, looked up)
chain: B1 chain with T23R, W25Q

Assays:
Assay in all cases: ITC
[1] = biological target: T1, FANCL URD-RING fragment (FANCL^UR, …)
Ube2T wildtype = biological target: B1
[2] = biological target: B5

Row | Kd [1] [nM] | dH [1] [kcal/mol] | further results | Binder
1 | ~119 | 6.46 | – | B1
2 | ~119 | -1.65 | – | B2
3 | – | – | Kd (Ube2T wildtype): ~250 nM; binding result [2]: binds | B3
4 | – | – | binding result [1]: binds | B4
5 | 200 | – | – | B5
